Data: PMC9769477 (2022)

Target: 9G1
Experiment: BLI

B1: CVA16/SZ05 viral particles (complex)
chain 1: GDPIADMIDQTVNNQVNRSLTALQVLPTAANTEASSHRLGTGVVPALQAAETGASSNASDKNLIETRCVLNHHSTQETAIGNFFSRAGLVSIITMPTTGTQNTDGYVNWDIDLMGYAQLRRKCELFTYMRFDAEFTFVVAKPNGELVPQLLQYMYVPPGAPKPTSRDSFAWQTATNPSVFVKMTDPPAQVSVPFMSPASAYQWFYDGYPTFGEHLQANDLDYGQCPNNMMGTFSIRTVGTEKSPHSITLRVYMRIKHVRAWIPRPLRNQPYLFKTNPNYKGNDIKCTSTSRDKITTL
chain 2: SPSAEACGYSDRVAQLTIGNSTITTQEAANIVIAYGEWPEYCPDTDATAVDKPTRPDVSVNRFFTLDTKSWAKDSKGWYWKFPDVLTEVGVFGQNAQFHYLYRSGFCVHVQCNASKFHQGALLVAVLPEYVLGTIAGGTGNENSHPPYATTQPGQVGAVLTHPYVLDAGIPLSQLTVCPHQWINLRTNNCATIIVPYMNTVPFDSALNHCNFGLLVIPVVPLDFNAGATSEIPITVTIAPMCAEFAGLRQAVKQ
chain 3: GIPTELKPGTNQFLTTDDGVSAPILPGFHPTPPIHIPGEVRNLLEICRVETILEVNNLKTNETTPMQRLCFPVSVQSKTGELCAAFRADPGRDGPWQSTILGQLCRYYTQWSGSLEVTFMFAGSFMATGKMLIAYTPPGGSVPADRITAMLGTHVIWDFGLQSSVTLVVPWISNTHYRAHARAGYFDYYTTGIITIWYQTNYVVPIGAPTTAYIVALAAAQDNFTMKLCKDTEDIEQTANIQ
chain 4: GSQVSTQRSGSHENSNSASEGSTINYTTINYYKDAYAASAGRQDMSQDPKRFTDPVMDVIHEMAPPLK
modifications: biotin (EZ-Link Sulfo-NHS-LC-LC-Biotin labelling of the particles before BLI; sites not stated) | biotin (EZ-Link Sulfo-NHS-LC-LC-Biotin labelling of the particles before BLI; sites not stated) | biotin (EZ-Link Sulfo-NHS-LC-LC-Biotin labelling of the particles before BLI; sites not stated) | biotin (EZ-Link Sulfo-NHS-LC-LC-Biotin labelling of the particles before BLI; sites not stated)
  Kd: 0.46 nM
  koff: 0.000631 s⁻¹
